The values that follow come from doi:10.1101/2023.01.25.525508.

For series [1], the target named is T1, TIA1 full-length (fl TIA1) (Mus musculus, UniProt P52912 1-386).
T1 sequence: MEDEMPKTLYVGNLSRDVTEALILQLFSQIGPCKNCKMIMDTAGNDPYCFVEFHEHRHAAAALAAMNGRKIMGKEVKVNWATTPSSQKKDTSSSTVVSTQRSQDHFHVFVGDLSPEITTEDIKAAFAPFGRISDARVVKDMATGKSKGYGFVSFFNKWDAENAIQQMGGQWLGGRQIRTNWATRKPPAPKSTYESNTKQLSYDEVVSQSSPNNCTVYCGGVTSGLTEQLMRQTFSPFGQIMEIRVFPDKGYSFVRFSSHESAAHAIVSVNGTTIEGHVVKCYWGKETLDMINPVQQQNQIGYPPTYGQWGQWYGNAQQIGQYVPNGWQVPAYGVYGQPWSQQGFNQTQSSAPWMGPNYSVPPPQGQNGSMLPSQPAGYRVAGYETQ
Nature of the series: ITC. A general note: In ITC the heat of successive injections is recorded.

For series [2], the target named is T1, TIA1 full-length (fl TIA1). Nature of the series: solid-state NMR.

In turn, TTTTTACTCC (ssDNA) [TC1] gave a Kd in series [1] of 263 ± 60 nM.

As to TTTTTACTCCAAAAAAAATTTTTACTCCAAAAAAAATTTTTACTCC (ssDNA) [(TC1-A8)2-TC1], the binding result in series [2] is on record as “binds”.

As usually defined, the Kd is the free concentration of one partner at which half of the binding sites on the other are occupied at equilibrium, for simple one-to-one binding. The low end stands for tighter binding, the high end for weaker binding.
